According to paper PMC5834491, “CryoEM structure of the human SLC4A4 sodium-coupled acid-base transporter NBCe1” (Nature Communications, 2018):

Target: the molecule itself
Test: cryo-EM structure; single-particle cryoEM of NBCe1-A (~0.4 mg/ml) in amphipol PMAL-C8, 20 mM Tris-HCl pH 7.5, 150 mM NaCl; C2 symmetry imposed; 3.9 Å

B1: Human N-terminally Strep(II)-tagged wild-type NBCe1-A (SLC4A4 sodium-bicarbonate cotransporter) (natural protein, UniProt Q9Y6R1-2 1-1035, looked up)
chain: MSTENVEGKPSNLGERGRARSSTFLRVVQPMFNHSIFTSAVSPAAERIRFILGEEDDSPAPPQLFTELDELLAVDGQEMEWKETARWIKFEEKVEQGGERWSKPHVATLSLHSLFELRTCMEKGSIMLDREASSLPQLVEMIVDHQIETGLLKPELKDKVTYTLLRKHRHQTKKSNLRSLADIGKTVSSASRMFTNPDNGSPAMTHRNLTSSSLNDISDKPEKDQLKNKFMKKLPRDAEASNVLVGEVDFLDTPFIAFVRLQQAVMLGALTEVPVPTRFLFILLGPKGKAKSYHEIGRAIATLMSDEVFHDIAYKAKDRHDLIAGIDEFLDEVIVLPPGEWDPAIRIEPPKSLPSSDKRKNMYSGGENVQMNGDTPHDGGHGGGGHGDCEELQRTGRFCGGLIKDIKRKAPFFASDFYDALNIQALSAILFIYLATVTNAITFGGLLGDATDNMQGVLESFLGTAVSGAIFCLFAGQPLTILSSTGPVLVFERLLFNFSKDNNFDYLEFRLWIGLWSAFLCLILVATDASFLVQYFTRFTEEGFSSLISFIFIYDAFKKMIKLADYYPINSNFKVGYNTLFSCTCVPPDPANISISNDTTLAPEYLPTMSSTDMYHNTTFDWAFLSKKECSKYGGNLVGNNCNFVPDITLMSFILFLGTYTSSMALKKFKTSPYFPTTARKLISDFAIILSILIFCVIDALVGVDTPKLIVPSEFKPTSPNRGWFVPPFGENPWWVCLAAAIPALLVTILIFMDQQITAVIVNRKEHKLKKGAGYHLDLFWVAILMVICSLMALPWYVAATVISIAHIDSLKMETETSAPGEQPKFLGVREQRVTGTLVFILTGLSVFMAPILKFIPMPVLYGVFLYMGVASLNGVQFMDRLKLLLMPLKHQPDFIYLRHVPLRRVHLFTFLQVLCLALLWILKSTVAAIIFPVMILALVAVRKGMDYLFSQHDLSFLDDVIPEKDKKKKEDEKKKKKKKGSLDSDNDDSDCPYSEKVPSIKIPMDIMEQQPFLSDSKPSDRERSPTFLERHTSC
notes: Electrogenic sodium bicarbonate cotransporter 1, NBCe1-A variant, human, full length; Only the membrane domain was modelled (474 residues per protomer); Met1-Gly400, Cys583-Leu637, Ser713-Trp734, Glu814-Lys825 and Asp966-Cys1035 were not modelled. numbers count on: the NBCe1-A isoform (1035 residues); Homodimer in amphipol PMAL-C8; The pTT vector is named (Addgene), no plasmid number is printed; …
**Q.** For B1, which “stoichiometry N” value is on record?
**A.** 2
